Experimental data taken from the RNAGym collection of RNA variant scans (doi:10.1093/molbev/msab373).

B1: Azoarcus group I ribozyme (parent)
chain: GUGCCUUGCGCCGGGAAACCACGCAAGGGAUGGUGUCAAAUUCGGCGAAACCUAAGCGCCCGCCCGGGCGUAUGGCAACGCCGAGCCAAGCUUCGGCGCCUGCGCCGAUGAAGGUGUAGAGACUAGACGGCACCCACCUAAGGCAAACGCUAUGGUGAAGGCAUAGUCCAGGGAGUGGCGAAAGUCACACAAACCGG

Variants of: B1
Experiment: reverse-splicing fitness (ratio to wild type); higher = more active; in vitro selection; Mg2+ level not given
Summary of the method: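 An in vitro group I ribozyme library with randomized positions was T7-transcribed and gel-purified. In triplicate, 10 pmol RNA in EPPS pH 7.5 was reacted with 50 pmoles of a 30-nt RNA substrate for 1 h at 37 °C across several added MgCl2 levels (1–48 mM), then stopped with EDTA. Products were reverse transcribed from a substrate-complementary primer, PCR-amplified and sequenced (HiSeq 4000). Fitness is a variant's read proportion after selection over that before, normalised to wild type.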

Point of comparison: GUGCCUUGCGCCGGGAAACCACGCAAGGGAUGGUGUCAAAUUCGGCGAAACCUAAGCGCCCGCCCGGGCGUAUGGCAACGCUGAGCCAAGCUUCGGCGCCUGCGCCGAUGUAGGUGUAGAGACUAGACGGCACCCACCUAAGGCGAACGUUAUGGUGAAGGCAUAGUCAAGGGAGGGGCGAAAGUCACACAAACCGG [C82U A111U A145G C150U C169A U176G], reverse-splicing fitness 0.00684. Against it:
- GUGCCUUGCGCCGGGAAACCACGCAAGGGAUGGUGUCAAAUUCGGCGAAACCUAAGCGCCCGCCCGGGCGUAUGGCAACGCUGAGCCAAGCUUCGGCGCCUGCGCCGAUGUAGGUGUAGAGACUAGACGGCACCCACCUAAGGCGAACGUUAUGGUGAAGGCAUAGUCUAGGGAGAGGCGAAAGUCACACAAACCGG [C82U A111U A145G C150U C169U U176A] — higher, 0.0149
- GUGCCUUGCGCCGGGAAACCACGCAAGGGAUGGUGUCAAAUUCGGCGAAACCUAAGCGCCCGCCCGGGCGUAUGGCAACGCUGAGCCAAGCUUCGGCGCCUGCGCCGAUGUAGGUGUAGAGACUAGACGGCACCCACCUAAGGCGAACGUUAUGGUGAAGGCAUAGUCUAGGGAGCGGCGAAAGUCACACAAACCGG [C82U A111U A145G C150U C169U U176C] — higher, 0.013
- GUGCCUUGCGCCGGGAAACCACGCAAGGGAUGGUGUCAAAUUCGGCGAAACCUAAGCGCCCGCCCGGGCGUAUGGCAACGCUGAGCCAAGCUUCGGCGCCUGCGCCGAUGUAGGUGUAGAGACUAGACGGCACCCACCUAAGGCGAACGGUAUGGUGAAGGCAUAGUCAAGGGAGGGGCGAAAGUCACACAAACCGG [C82U A111U A145G C150G C169A U176G] — higher, 0.0074
- GUGCCUUGCGCCGGGAAACCACGCAAGGGAUGGUGUCAAAUUCGGCGAAACCUAAGCGCCCGCCCGGGCGUAUGGCAACGCUGAGCCAAGCUUCGGCGCCUGCGCCGAUGUAGGUGUAGAGACUAGACGGCACCCACCUAAGGCGAACGGUAUGGUGAAGGCAUAGUCAAGGGAGCGGCGAAAGUCACACAAACCGG [C82U A111U A145G C150G C169A U176C] — higher, 0.0112
- GUGCCUUGCGCCGGGAAACCACGCAAGGGAUGGUGUCAAAUUCGGCGAAACCUAAGCGCCCGCCCGGGCGUAUGGCAACGCUGAGCCAAGCUUCGGCGCCUGCGCCGAUGUAGGUGUAGAGACUAGACGGCACCCACCUAAGGCGAACGGUAUGGUGAAGGCAUAGUCAAGGGAGAGGCGAAAGUCACACAAACCGG [C82U A111U A145G C150G C169A U176A] — higher, 0.0125
- GUGCCUUGCGCCGGGAAACCACGCAAGGGAUGGUGUCAAAUUCGGCGAAACCUAAGCGCCCGCCCGGGCGUAUGGCAACGCUGAGCCAAGCUUCGGCGCCUGCGCCGAUGUAGGUGUAGAGACUAGACGGCACCCACCUAAGGCGAACGUUAUGGUGAAGGCAUAGUCAAGGGAGAGGCGAAAGUCACACAAACCGG [C82U A111U A145G C150U C169A U176A] — higher, 0.0156
- GUGCCUUGCGCCGGGAAACCACGCAAGGGAUGGUGUCAAAUUCGGCGAAACCUAAGCGCCCGCCCGGGCGUAUGGCAACGCUGAGCCAAGCUUCGGCGCCUGCGCCGAUGUAGGUGUAGAGACUAGACGGCACCCACCUAAGGCGAACGUUAUGGUGAAGGCAUAGUCAAGGGAGCGGCGAAAGUCACACAAACCGG [C82U A111U A145G C150U C169A U176C] — higher, 0.0159
- GUGCCUUGCGCCGGGAAACCACGCAAGGGAUGGUGUCAAAUUCGGCGAAACCUAAGCGCCCGCCCGGGCGUAUGGCAACGCUGAGCCAAGCUUCGGCGCCUGCGCCGAUGUAGGUGUAGAGACUAGACGGCACCCACCUAAGGCGAACGUUAUGGUGAAGGCAUAGUCUAGGGAGUGGCGAAAGUCACACAAACCGG [C82U A111U A145G C150U C169U] — higher, 0.0113
- GUGCCUUGCGCCGGGAAACCACGCAAGGGAUGGUGUCAAAUUCGGCGAAACCUAAGCGCCCGCCCGGGCGUAUGGCAACGCUGAGCCAAGCUUCGGCGCCUGCGCCGAUGUAGGUGUAGAGACUAGACGGCACCCACCUAAGGCGAACGUUAUGGUGAAGGCAUAGUCAAGGGAGUGGCGAAAGUCACACAAACCGG [C82U A111U A145G C150U C169A] — higher, 0.0102
- GUGCCUUGCGCCGGGAAACCACGCAAGGGAUGGUGUCAAAUUCGGCGAAACCUAAGCGCCCGCCCGGGCGUAUGGCAACGCUGAGCCAAGCUUCGGCGCCUGCGCCGAUGUAGGUGUAGAGACUAGACGGCACCCACCUAAGGCGAACGUUAUGGUGAAGGCAUAGUCGAGGGAGUGGCGAAAGUCACACAAACCGG [C82U A111U A145G C150U C169G] — higher, 0.00883
- GUGCCUUGCGCCGGGAAACCACGCAAGGGAUGGUGUCAAAUUCGGCGAAACCUAAGCGCCCGCCCGGGCGUAUGGCAACGCUGAGCCAAGCUUCGGCGCCUGCGCCGAUGUAGGUGUAGAGACUAGACGGCACCCACCUAAGGCGAACGAUAUGGUGAAGGCAUAGUCCAGGGAGCGGCGAAAGUCACACAAACCGG [C82U A111U A145G C150A U176C] — higher, 0.0426
- GUGCCUUGCGCCGGGAAACCACGCAAGGGAUGGUGUCAAAUUCGGCGAAACCUAAGCGCCCGCCCGGGCGUAUGGCAACGCUGAGCCAAGCUUCGGCGCCUGCGCCGAUGUAGGUGUAGAGACUAGACGGCACCCACCUAAGGCGAACGAUAUGGUGAAGGCAUAGUCCAGGGAGGGGCGAAAGUCACACAAACCGG [C82U A111U A145G C150A U176G] — higher, 0.00953
- GUGCCUUGCGCCGGGAAACCACGCAAGGGAUGGUGUCAAAUUCGGCGAAACCUAAGCGCCCGCCCGGGCGUAUGGCAACGCUGAGCCAAGCUUCGGCGCCUGCGCCGAUGUAGGUGUAGAGACUAGACGGCACCCACCUAAGGCGAACGGUAUGGUGAAGGCAUAGUCUAGGGAGCGGCGAAAGUCACACAAACCGG [C82U A111U A145G C150G C169U U176C] — higher, 0.0115
- GUGCCUUGCGCCGGGAAACCACGCAAGGGAUGGUGUCAAAUUCGGCGAAACCUAAGCGCCCGCCCGGGCGUAUGGCAACGCUGAGCCAAGCUUCGGCGCCUGCGCCGAUGUAGGUGUAGAGACUAGACGGCACCCACCUAAGGCGAACGGUAUGGUGAAGGCAUAGUCUAGGGAGGGGCGAAAGUCACACAAACCGG [C82U A111U A145G C150G C169U U176G] — lower, 0.00654
